Reference: patent publication US20150344570A1 (published 2015)

T1: FcγRIIa R (FcγRIIa allotype with Arg at position 131), extracellular domain with C-terminal His tag (human, UniProt P12318 34-217)
T1 construct: extracellular domain; made in FreeStyle293 cells; analyte in the Biacore assay; also called FcγRIIa type R; 2aR
T1 sequence (looked up): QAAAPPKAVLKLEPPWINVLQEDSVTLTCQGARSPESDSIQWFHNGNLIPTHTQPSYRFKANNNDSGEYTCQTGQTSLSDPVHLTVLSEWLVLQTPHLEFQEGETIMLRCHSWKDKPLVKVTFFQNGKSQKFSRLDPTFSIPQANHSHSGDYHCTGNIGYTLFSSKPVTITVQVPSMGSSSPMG

T2: FcγRIIb, extracellular domain with C-terminal His tag (human, UniProt P31994 43-217)
T2 construct: extracellular domain; made in FreeStyle293 cells; analyte in the Biacore assay; also called 2b; FcgRIIb
T2 sequence (looked up): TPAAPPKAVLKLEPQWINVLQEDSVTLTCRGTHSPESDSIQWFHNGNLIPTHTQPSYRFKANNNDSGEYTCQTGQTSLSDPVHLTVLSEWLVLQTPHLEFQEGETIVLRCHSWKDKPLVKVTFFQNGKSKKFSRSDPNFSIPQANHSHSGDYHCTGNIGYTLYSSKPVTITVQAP

T3: FcγRIIb extracellular domain with C-terminal His tag (human, UniProt P31994 43-217)
T3 construct: extracellular domain; Expressed in FreeStyle293 cells; analyte in the SPR assay; also called FcgRIIb; 2b
T3 sequence (looked up): T2 sequence (looked up)

B1: GpH7-A5/GpH7-B3 variant G236_02A/GpL16-k0 (antibody, human IgG1, kappa)
heavy 1: not shown
heavy 2: not shown
light: DIVMTQSPLSLPVTPGEPASISCQASESLVHSNRNTYLHWYLQKPGQSPQLLIYKVSNRFSGVPDRFSGSGSGTDFTLKISRVEAEDVGVYYCSQNTHVPPTFGQGTKVEIERTVAAPSVFIFPPSDEQLKSGTASVVCLLNNFYPREAKVQWKVDNALQSGNSQESVTEQDSKDSTYSLSSTLTLSKADYEKHKVYACEVTHQGLSSPVTKSFNRGEC
notes: heterodimerized IgG1, mutation in one H chain only; also called He Ab
B2: GpH7-A5/GpH7-B3 variant G236_03V/GpL16-k0 (antibody, human IgG1, kappa)
heavy 1: not shown
heavy 2: not shown
light: B1 light
notes: as for B1
B3: GpH7-A5/GpH7-B3 variant G236_07I/GpL16-k0 (antibody, human IgG1, kappa)
heavy 1: not shown
heavy 2: not shown
light: B1 light
notes: as for B1
B4: GpH7-A5/GpH7-B3 variant L235_12R/GpL16-k0 (antibody, human IgG1, kappa)
heavy 1: not shown
heavy 2: not shown
light: B1 light
notes: as for B1
B5: GpH7-A5/GpH7-B3 variant G236_13S/GpL16-k0 (antibody, human IgG1, kappa)
heavy 1: not shown
heavy 2: not shown
light: B1 light
notes: as for B1
B6: GpH7-A5/GpH7-B3 variant G236_08L/GpL16-k0 (antibody, human IgG1, kappa)
heavy 1: not shown
heavy 2: not shown
light: B1 light
notes: as for B1
B7: GpH7-A5/GpH7-B3 variant G236_06M/GpL16-k0 (antibody, human IgG1, kappa)
heavy 1: not shown
heavy 2: not shown
light: B1 light
notes: as for B1
B8: GpH7-A5/GpH7-B3 variant G236_04F/GpL16-k0 (antibody, human IgG1, kappa)
heavy 1: not shown
heavy 2: not shown
light: B1 light
notes: as for B1
B9: GpH7-A5/GpH7-B3 variant G236_12R/GpL16-k0 (antibody, human IgG1, kappa)
heavy 1: not shown
heavy 2: not shown
light: B1 light
notes: as for B1
B10: GpH7-A5/GpH7-B3 variant G236_05P/GpL16-k0 (antibody, human IgG1, kappa)
heavy 1: not shown
heavy 2: not shown
light: B1 light
notes: as for B1
B11: GpH7-A5/GpH7-B3 variant L234_01G/GpL16-k0 (He Ab) (antibody, human IgG1, kappa)
heavy 1: not shown
heavy 2: not shown
light: B1 light
notes: He Ab: mutation in one H chain only
B12: GpH7-A5/GpH7-B3 variant L234_13S/GpL16-k0 (He Ab) (antibody, human IgG1, kappa)
heavy 1: not shown
heavy 2: not shown
light: B1 light
notes: as for B11
B13: GpH7-A5/GpH7-B3 variant L234_05P/GpL16-k0 (He Ab) (antibody, human IgG1, kappa)
heavy 1: not shown
heavy 2: not shown
light: B1 light
notes: as for B11
B14: GpH7-A5/GpH7-B3 variant L234_02A/GpL16-k0 (He Ab) (antibody, human IgG1, kappa)
heavy 1: not shown
heavy 2: not shown
light: B1 light
notes: as for B11
B15: GpH7-A5/GpH7-B3 variant L235_05P/GpL16-k0 (He Ab) (antibody, human IgG1, kappa)
heavy 1: not shown
heavy 2: not shown
light: B1 light
notes: as for B11
B16: GpH7-A5/GpH7-B3 variant L234_19Q/GpL16-k0 (He Ab) (antibody, human IgG1, kappa)
heavy 1: not shown
heavy 2: not shown
light: B1 light
notes: as for B11

target: T1, FcγRIIa R (FcγRIIa allotype with Arg at …); assay: SPR (Biacore), antibody captured, FcγR analyte; vs GpH7-A5/GpH7-B3/GpL16-k0 = 100

He/Con_2aR	Binder
146 relative (HeCon Ab = 100)	B1
91.6 relative (HeCon Ab = 100)	B2
87.1 relative (HeCon Ab = 100)	B3
16.2 relative (HeCon Ab = 100)	B4
136 relative (HeCon Ab = 100)	B5
65.8 relative (HeCon Ab = 100)	B6
57.3 relative (HeCon Ab = 100)	B7
53.1 relative (HeCon Ab = 100)	B8
24.1 relative (HeCon Ab = 100)	B9
47.9 relative (HeCon Ab = 100)	B10

target: T2, FcγRIIb, extracellular domain with …; assay: as above

He/Con_2b	Binder
96.5 relative (HeCon Ab = 100)	B1
35.3 relative (HeCon Ab = 100)	B2
31 relative (HeCon Ab = 100)	B3
96.7 relative (HeCon Ab = 100)	B5
26.8 relative (HeCon Ab = 100)	B6
45.5 relative (HeCon Ab = 100)	B7
39.3 relative (HeCon Ab = 100)	B8
6.8 relative (HeCon Ab = 100)	B9
19 relative (HeCon Ab = 100)	B10

target: T1, FcγRIIa R (FcγRIIa allotype with Arg at …); assay: SPR (Biacore); He/Con_2aR divided by He/Con_2b, binding to FcγRIIa R against binding to FcγRIIb
Method: The heterodimerized antibodies He Abs in which one of the H chains was introduced with an alteration were assayed for their binding activities to each activating FcγR and inhibitory FcγR according to the method described in Example 4. […] The activating FcγRs in FIGS. 26, 27, 28, and 29 are FcγRIa, FcγRIIa (R), FcγRIIa (H), and FcγRIIIa, respectively.
Analysis of interaction between objective antibody and the FcγR was carried out using Biacore T100 (GE Healthcare). HBS-EP+ (GE Healthcare) was used as the running buffer, and the measurement temperature was set to 25° C. Chips produced by immobilizing the antigen peptide by the amine coupling method to a Series S Sencor Chip CM5 (GE Healthcare), or alternatively, chips produced by allowing preliminarily biotinylated antigen peptides to interact with and immobilize onto a Series S Sensor Chip SA (certified) (GE Healthcare) were used. Antibodies of interest were captured onto an antigen peptide-immobilized chip, and allowed to interact to each FcγR diluted with running buffer. To regenerate and repeatedly use the chip, the antibodies captured on the chip were washed off by reacting 10 mM glycine-HCl, pH 1.5.

He_2aR/2b (IIaR/IIb) [ratio]	Binder
1.51	B1
2.6	B2
2.81	B3
1.69	B4
1.41	B5
2.45	B6
1.26	B7
1.35	B8
3.55	B9
2.52	B10

target: T3, FcγRIIb extracellular domain with …; assay: SPR (Biacore), relative binding, HeCon Ab = 100

He/Con_2b	Binder
50.7 % of HeCon Ab (=100)	B11
59.3 % of HeCon Ab (=100)	B12
72.9 % of HeCon Ab (=100)	B13
64.9 % of HeCon Ab (=100)	B14
54.7 % of HeCon Ab (=100)	B15
60.3 % of HeCon Ab (=100)	B16

target: T4, FcγRIa extracellular domain with C-terminal His tag (human, UniProt P12314 16-292); assay: SPR (Biacore), relative binding, HeCon Ab = 100
T4 construct: extracellular domain; Expressed in FreeStyle293 cells; analyte in the SPR assay; also called FcgRI; 1a
T4 sequence (P12314 16-292): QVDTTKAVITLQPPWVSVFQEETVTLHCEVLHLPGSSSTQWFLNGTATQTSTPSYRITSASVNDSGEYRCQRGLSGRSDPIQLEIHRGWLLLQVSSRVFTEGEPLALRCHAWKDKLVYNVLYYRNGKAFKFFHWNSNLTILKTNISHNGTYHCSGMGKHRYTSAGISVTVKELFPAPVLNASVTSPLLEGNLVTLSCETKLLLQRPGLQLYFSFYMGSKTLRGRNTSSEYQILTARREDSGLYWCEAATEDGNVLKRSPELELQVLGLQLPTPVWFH

He/Con_1a	Binder
96.1 % of HeCon Ab (=100)	B11
96.9 % of HeCon Ab (=100)	B12
99.9 % of HeCon Ab (=100)	B13
97.5 % of HeCon Ab (=100)	B14
94.7 % of HeCon Ab (=100)	B15
95.7 % of HeCon Ab (=100)	B16

target: T4, FcγRIa extracellular domain with …; assay: SPR (Biacore); He/Con_1a divided by He/Con_2b (FcγRIa against FcγRIIb)

He_1a/2b (Ia/IIb) [ratio]	Binder
1.9	B11
1.63	B12
1.37	B13
1.5	B14
1.73	B15
1.59	B16
